Source: patent publication US20140051084A1

Legend:
Abeta1-42 [1] = experiment: intracellular flow cytometry of THP-1 cells, isotype control stain (background level)
Abeta1-42 [2] = experiment: intracellular flow cytometry of monocytes/macrophages from patient and control, isotype control stain (background level)

Sequence of Abeta1-42 (peptide, as listed by the source): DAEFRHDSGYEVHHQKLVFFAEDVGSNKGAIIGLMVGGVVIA

- median Abeta FITC-A signal (Abeta1-42 [1]): 102
- median Abeta FITC-A signal (Abeta1-42 [2]): 102
Substance: isotype control antibodies (Mouse IgG1 and IgG2b) (antibody)
